Assay [1] addresses T1, SNAP-25 peptide comprising amino acids 134-197 of SEQ ID NO: 5 (human). The assay is described as follows: SPR (BIAcore 3000), peptide on CM5 chip, antibody in flow.
Assay [2] deals with T1, SNAP-25 peptide comprising amino acids …. The assay is described as follows: SPR (BIAcore 3000), peptide on CM5 chip, antibody in flow; value in parentheses, second determination not explained. (In general: Surface plasmon resonance follows binding to a sensor surface in real time, without labels.)
The target of assay [3] is T2, SNAP-25206 uncleaved substrate (in PC12 cells) (UniProt P60881 1-206).
T2 construct: domain: SNAP-25206 uncleaved substrate; also called uncleaved SNAP-25
T2 sequence (P60881 whole entry): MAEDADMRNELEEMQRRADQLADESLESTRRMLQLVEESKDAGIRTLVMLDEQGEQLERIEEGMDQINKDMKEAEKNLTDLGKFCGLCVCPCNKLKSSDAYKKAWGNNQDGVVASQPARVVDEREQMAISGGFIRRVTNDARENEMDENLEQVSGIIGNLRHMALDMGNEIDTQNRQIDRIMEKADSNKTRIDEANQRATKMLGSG
The experiment in a line: cell-based assay, Western blot of PC12 cells +/- GFP-BoNT/A-LC, ascites 1:100.

Assay [4] addresses T1, SNAP-25 peptide comprising amino acids …. The assay is described as follows: SPR (BIAcore 3000), peptide on CM5 chip, antibody in flow; value in parentheses, second determination not explained; value in parentheses (second set for 2E2A6; KD 0.405 nM, used in paragraph 239).
Assay [5] shares this target. The assay is described as follows: SPR (BIAcore 3000), peptide on CM5 chip, antibody in flow. The source holds these as a separate data set.
For assay [6], the target named is SNAP-25 peptide comprising amino acids 134-206 of SEQ ID NO: 5 (human). The description is as above.

Here are results for four molecules from US20120149104A1 (ALLERGAN, published 2012).

Changes are numbered by the printed parent chain. Some results are limits rather than exact numbers.

B1: α-SNAP-25 monoclonal antibody 2E2A6 (antibody, V domains shown)
VH: QVQLQQSDAELVKPGASVKISCRASGYTFTDHSIHWVKQQPGQGLEWIGYIFPGNGNIEYNDKFKGKATLTADKSSGTAYMQLNSLTSEDSAVYFCKRMGYWGQGTSVTVSS
VL: DVLMTQTPLTLSVTIGQPASISCKSSQSLLYTNGKTYLTWLFQRPGQSPKRLIYLVSELDSGVPDRFSGSGSGTDFTLEITRVEAEDLGVYYCLQSAHFPFTFGSGTKLEIKR
For orientation: Kd means the concentration at which binding is half-saturated. A word on the koff: it is the first-order rate constant of dissociation. By kon is commonly meant a measure of how fast the partners come together. For the molecule B1, the “fold difference of the off rate/dissociation constant against MC-6050 and MC-6053” value in assay [1] was at least 1 fold. The figures for the Kd in assay [2] and in assay [5] were 0.405 nM and 0.09 nM, respectively. The koff in assay [2] was 6.74e-05 s⁻¹; in assay [5], 0.000153 s⁻¹. Moreover, the binding result in assay [3] is on record as “no binding”; in assay [6], “no binding (tested: 10 µM)”. The figures for the kon in assay [4] and in assay [5] were 166000 M⁻¹ s⁻¹ and 1.7e+06 M⁻¹ s⁻¹, respectively.

B2: α-SNAP-25 monoclonal antibody 3C1A5 (antibody, V domains shown)
VH: QVKLQESGAELVKPGASVKISCKASGYTFTDHSIHWVKQKPGQGLEWIGYLFPGNGNFEYNEKFKGKATLTADKSSSTVYMYLNSLTSEDSAVYFCKRMGYWGQGTTVTVSS
VL: B1 VL with L3V, Y31N, F42I, K50Q, E58K, E79K, T81S, A97S
Take B2: the binding result in assay [3] is “no binding”. In assay [5], binding was characterised by a dissociation constant (Kd) of 1.33 nM, the koff came to 0.000288 s⁻¹ and the kon came out at 217000 M⁻¹ s⁻¹. Also, in assay [6], the binding result is recorded as “no binding (tested: 100 nM)”.

B3: α-SNAP-25 monoclonal antibody 1D3B8 (antibody, V domains shown)
VH: QVKLQESGAELVKPGASVKISCKASGYIFTDHALHWVRQKPEQGLEWIGYIFPGNGNIEYNEKFKGKATLTADKSSSTAYMQLNSLTSGDSAMYFCKKMDYWGQGTTVTVSS
VL: DVLMTQTPLSLPVSLGDQASISCRSSQSIVHSNGNTYLEWYLQKPGQSPKLLIYKVSNRFSGVPDRFSGSGSGTDFTLKISRVEAEDLGVYYCFQGSHVPPTFGAGTKLELKR
Consider B3, for which, in assay [1], the “fold difference of the equilibrium disassociation constant against MC-6050 and MC-6053” value is about 10 fold. Moreover, the binding result in assay [3] was “no binding”. For the same molecule, in assay [5], binding was characterised by a dissociation constant (Kd) of 0.05 nM, the dissociation rate constant (koff) was 5.78e-05 s⁻¹ and the on-rate (kon) was 1.06e+06 M⁻¹ s⁻¹. Besides, in assay [6], the binding result is “no binding (tested: 125 nM)”.

B4: α-SNAP-25 monoclonal antibody 2C9B10 (antibody, V domains shown)
VH: B2 VH with V79A, Y82H, R98K, G100D
VL: DIQMTQSPASLSASVGETVTITCRTTENIYSYFVWSQQRQGKSPQLRVYNAKSLAEGVPSSFNVSVSGTQFSLKINSLQPEDFGTYHCQHHYGTPYTFGGGTRLEIRR
As to B4, in assay [3], the binding result was “no binding”. Further, in assay [5], the affinity, expressed as Kd, was 27.1 nM; the koff was 0.000311 s⁻¹; the association rate constant (kon) came out at 11500 M⁻¹ s⁻¹.
